Test [1] can be described thus: Luminescence activity assay of purified Gaussia luciferase mutants on coelenterazine. It counts as biochemical. Also noted: key to Activity of mutant relative to wild-type Gaussia luciferase without the signal peptide: ratio of mutant luminescence intensity to wild-type Gaussia luciferase. The note with it: Substrate CTZ (Table 16). The procedure: (§1) In this Example, the protein concentration was determined with a BCA quantitative kit (Thermo Scientific™ Pierce™ BCA Protein Assay Kit) accurately. The purified luciferase obtained in Example 5 was diluted with diluent (50 mM Tris-HCl, pH 8.0, 100 mM NaCl, 0.1% (v/v) Tween-20) to 1 μg/mL. The diluted luciferase, taken for 10 μL, was moved into a black 96-well plate, then added with 90 μL of the substrates coelenterazine, fluoro-coelenterazine or coelenterazine derivative ZS2 (purchased from Biolab) which was diluted into 100 μM with the same diluent, and the luminescence intensity of the plate was read with a self-luminescence module of a microplate reader. The mutation site of the mutant, the measured luminescence intensity, the ratio of luminescence intensities of the advantageous mutants to the wild-type Gaussia luciferase without the signal peptide having the sequence shown in SEQ ID NO: 3 are shown in Table 15. The results of catalytic activity assay of the advantageous mutants relative to the wild-type Gaussia luciferase without the signal peptide having the sequence shown in SEQ ID NO: 3 on substrate coelenterazine are shown in FIG. 6. […] The results of catalytic activity assay of the advantageous mutants relative to the wild-type Gaussia luciferase without the signal peptide having the sequence shown in SEQ ID NO: 3 on substrate fluoro-coelenterazine are shown in FIG. 7.
(§2) The new mutant library constructed in Example 7 was screened and tested for substrate specificity. Expression and purification schemes were the same as that in Example 5, and the activity assay scheme was the same as that in Example 6. The respective catalytic activities of combinatorial mutants on coelenterazine, fluoro-coelenterazine or coelenterazine derivative ZS2, and coelenterazine derivative ZS26 (purchased from BIOLAB) were assayed, and comparisons among the substrate specificities of the combinatorial mutants were based on the ratios of catalytic activities on two corresponding substrates.

Test [2] is described as follows: Luminescence activity assay of purified Gaussia luciferase mutants on coelenterazine derivative ZS2. The format is biochemical. The arrangement: key to Activity of mutant relative to wild-type Gaussia luciferase without the signal peptide: ratio of mutant luminescence intensity to wild-type Gaussia luciferase. The note with it: Substrate ZS2 (Table 16). The procedure:
as §1, §2

B1: F26R N27D V29C A30G V31L A32D S33V A36V T37S: Gaussia luciferase mutant (protein)
chain: MGVKVLFALICIAVAEAKPTENNEDRDICGLDVNFVSTDLDADRGKLPGKKLPLEVLKEMEANARKAGCTRGCLICLSHIKCTPKMKKFIPGRCHTYEGDKESAQGGIGEAIVDIPEIPGFKDLEPMEQFIAQVDLCVDCTTGCLKGLANVQCSDLLKKWLPQRCATFASKIQGQVDKIKGAGGD
modifications: SIGNAL (1)..(17)
notes: Gaussia luciferase mutant
Consider B1, for which the “Activity of mutant relative to wild-type Gaussia luciferase without the signal peptide” value in test [1] worked out at 1.308; in test [2] it was 0.128.

B2: F26R V29F A30D V31L S33G T37D L40A: Gaussia luciferase mutant (protein)
chain: MGVKVLFALICIAVAEAKPTENNEDRNIFDLAGNFADTDADADRGKLPGKKLPLEVLKEMEANARKAGCTRGCLICLSHIKCTPKMKKFIPGRCHTYEGDKESAQGGIGEAIVDIPEIPGFKDLEPMEQFIAQVDLCVDCTTGCLKGLANVQCSDLLKKWLPQRCATFASKIQGQVDKIKGAGGD
modifications: SIGNAL (1)..(17)
notes: Gaussia luciferase mutant
As for B2, the “Activity of mutant relative to wild-type Gaussia luciferase without the signal peptide” value came to 1.017 in test [1] and 1.781 in test [2].

B3: F26S V29L A30G S33R T37K L40A: Gaussia luciferase mutant (protein)
chain: MGVKVLFALICIAVAEAKPTENNEDSNILGVARNFAKTDADADRGKLPGKKLPLEVLKEMEANARKAGCTRGCLICLSHIKCTPKMKKFIPGRCHTYEGDKESAQGGIGEAIVDIPEIPGFKDLEPMEQFIAQVDLCVDCTTGCLKGLANVQCSDLLKKWLPQRCATFASKIQGQVDKIKGAGGD
modifications: SIGNAL (1)..(17)
notes: Gaussia luciferase mutant
Turning to B3, the “Activity of mutant relative to wild-type Gaussia luciferase without the signal peptide” value in test [1] amounted to 1.067; in test [2] it was 0.787.

B4: F26R V29R A30V V31L S33G A36V T37R: Gaussia luciferase mutant (protein)
chain: MGVKVLFALICIAVAEAKPTENNEDRNIRVLAGNFVRTDLDADRGKLPGKKLPLEVLKEMEANARKAGCTRGCLICLSHIKCTPKMKKFIPGRCHTYEGDKESAQGGIGEAIVDIPEIPGFKDLEPMEQFIAQVDLCVDCTTGCLKGLANVQCSDLLKKWLPQRCATFASKIQGQVDKIKGAGGD
modifications: SIGNAL (1)..(17)
notes: Gaussia luciferase mutant
For the molecule B4, the results for the “Activity of mutant relative to wild-type Gaussia luciferase without the signal peptide” value in test [1] and in test [2] were 0.423 and 0.115, respectively.

B5: F26T N27N V29E V31I A32G S33V A36R T37G L40G: Gaussia luciferase mutant (protein)
chain: MGVKVLFALICIAVAEAKPTENNEDTNIEAIGVNFRGTDGDADRGKLPGKKLPLEVLKEMEANARKAGCTRGCLICLSHIKCTPKMKKFIPGRCHTYEGDKESAQGGIGEAIVDIPEIPGFKDLEPMEQFIAQVDLCVDCTTGCLKGLANVQCSDLLKKWLPQRCATFASKIQGQVDKIKGAGGD
modifications: SIGNAL (1)..(17)
notes: Gaussia luciferase mutant
On to B5, for which the figures for the “Activity of mutant relative to wild-type Gaussia luciferase without the signal peptide” value in test [1] and in test [2] were 0.940 and 1.995, respectively.

B6: F26R V29D A30G A32D A36I T37A L40R: Gaussia luciferase mutant (protein)
chain: MGVKVLFALICIAVAEAKPTENNEDRNIDGVDSNFIATDRDADRGKLPGKKLPLEVLKEMEANARKAGCTRGCLICLSHIKCTPKMKKFIPGRCHTYEGDKESAQGGIGEAIVDIPEIPGFKDLEPMEQFIAQVDLCVDCTTGCLKGLANVQCSDLLKKWLPQRCATFASKIQGQVDKIKGAGGD
modifications: SIGNAL (1)..(17)
notes: Gaussia luciferase mutant
Turning to B6, the figures for the “Activity of mutant relative to wild-type Gaussia luciferase without the signal peptide” value in test [1] and in test [2] were 0.453 and 2.460, respectively.

B7: K66N H79K P84L S103T E110A D123N L124M E128G V138E: Gaussia luciferase mutant (protein)
chain: MGVKVLFALICIAVAEAKPTENNEDFNIVAVASNFATTDLDADRGKLPGKKLPLEVLKEMEANARNAGCTRGCLICLSKIKCTLKMKKFIPGRCHTYEGDKETAQGGIGAAIVDIPEIPGFKNMEPMGQFIAQVDLCEDCTTGCLKGLANVQCSDLLKKWLPQRCATFASKIQGQVDKIKGAGGD
modifications: SIGNAL (1)..(17)
notes: Gaussia luciferase mutant
Turning to B7, the results for the “Activity of mutant relative to wild-type Gaussia luciferase without the signal peptide” value in test [1] and in test [2] were 1.111 and 1.709, respectively.

B8: K66R P84A E102A S103I A104G E110A: Gaussia luciferase mutant (protein)
chain: MGVKVLFALICIAVAEAKPTENNEDFNIVAVASNFATTDLDADRGKLPGKKLPLEVLKEMEANARRAGCTRGCLICLSHIKCTAKMKKFIPGRCHTYEGDKAIGQGGIGAAIVDIPEIPGFKDLEPMEQFIAQVDLCVDCTTGCLKGLANVQCSDLLKKWLPQRCATFASKIQGQVDKIKGAGGD
modifications: SIGNAL (1)..(17)
notes: Gaussia luciferase mutant
For the molecule B8, the “Activity of mutant relative to wild-type Gaussia luciferase without the signal peptide” value in test [1] came to 0.122; in test [2] it was 1.209.

B9: K66R E102D E110P V138D: Gaussia luciferase mutant (protein)
chain: MGVKVLFALICIAVAEAKPTENNEDFNIVAVASNFATTDLDADRGKLPGKKLPLEVLKEMEANARRAGCTRGCLICLSHIKCTPKMKKFIPGRCHTYEGDKDSAQGGIGPAIVDIPEIPGFKDLEPMEQFIAQVDLCDDCTTGCLKGLANVQCSDLLKKWLPQRCATFASKIQGQVDKIKGAGGD
modifications: SIGNAL (1)..(17)
notes: Gaussia luciferase mutant
Regarding B9, the “Activity of mutant relative to wild-type Gaussia luciferase without the signal peptide” value in test [1] stood at 0.674; in test [2], 1.560.

B10: K66R E102K E110G D123N V138D: Gaussia luciferase mutant (protein)
chain: MGVKVLFALICIAVAEAKPTENNEDFNIVAVASNFATTDLDADRGKLPGKKLPLEVLKEMEANARRAGCTRGCLICLSHIKCTPKMKKFIPGRCHTYEGDKKSAQGGIGGAIVDIPEIPGFKNLEPMEQFIAQVDLCDDCTTGCLKGLANVQCSDLLKKWLPQRCATFASKIQGQVDKIKGAGGD
modifications: SIGNAL (1)..(17)
notes: Gaussia luciferase mutant
As to B10, the “Activity of mutant relative to wild-type Gaussia luciferase without the signal peptide” value is given as 1.000 in test [1] and 1.611 in test [2].

B11: K66N P84L E102K E110P D123N: Gaussia luciferase mutant (protein)
chain: MGVKVLFALICIAVAEAKPTENNEDFNIVAVASNFATTDLDADRGKLPGKKLPLEVLKEMEANARNAGCTRGCLICLSHIKCTLKMKKFIPGRCHTYEGDKKSAQGGIGPAIVDIPEIPGFKNLEPMEQFIAQVDLCVDCTTGCLKGLANVQCSDLLKKWLPQRCATFASKIQGQVDKIKGAGGD
modifications: SIGNAL (1)..(17)
notes: Gaussia luciferase mutant
As to B11, the entries for the “Activity of mutant relative to wild-type Gaussia luciferase without the signal peptide” value in test [1] and in test [2] were 0.172 and 0.112, respectively.
